# Laboratory results taken from US9383360B2, “Compositions and methods relating to lyme disease” (The United States of America, as represented by the …, priority 2012, dated 2016).
# System: chondrocyte aggregate cultures
# Assay: Chondrocyte cytokine induction assay (Proteome Profiler Cytokine Arrays)
# Type: cell-based, human
# Details: for Cytokines released by chondrocytes in response: LPS, medium alone
# Excerpt: Chondrocyte aggregate cultures are used which form an extensive extracellular matrix with components characteristic of articular cartilage including aggrecan and type II collagen as described in Welter, J. et al, BioTechniques, 2007, 42(6):732-737; and Solchaga, L. A. et al., Chondrogenic Differentiation of Bone Marrow-Derived Mesenchymal Stem Cells: Tips and Tricks, 2011, 698:253-278.
# To form the chondrocyte aggregate cultures, lx10^6 human mesenchymal stem cells (passage one, Lonza, catalog #PT-2501) were plated in a T150 flask (Corning) and cultured in growth media: mesenchymal stem cell basal media (MSCBM, Lonza, #PT-3238), mesenchymal growth supplements (SingleQuots, Lonza, #PT-4105), and 5 ng/ml recombinant human […] (Shenandoah Biotechnology). When confluent, cells were trypsin-released (0.5% trypsin EDTA, Gibco), expanded to two T150 flasks and fed with growth media every three days. When confluent, cells were harvested, resuspended in fresh growth media containing 5% DMSO and aliquots of 1×10^6 cells were cryopreserved in liquid nitrogen.
# Human mesenchymal stem cells were used to promote chondrogenesis and chondrocyte aggregate formation for use in these studies. Two vials of passage three cryopreserved cells were thawed, plated in growth media in two T150 flasks and then expanded to six T150 flasks as above. Cells were harvested (0.5% trypsin EDTA, Gibco), pooled, enumerated and induced to chondrogenic differentiation as follows. Cells were resuspended in defined chondrocyte differentiation media: high glucose DMEM (Gibco), 50 μg/ml ascorbic acid-2-phosphate (Sigma), 39.3 ng/ml dexamethasone (Sigma), […] L-proline (Sigma), ITS+Premix (BD Biosciences), 10 ng/ml transforming growth factor β-3 (Shenandoah Biotechnology) and 30 μg/ml gentamicin sulfate+15 ng/ml amphotericin-B (GA-1000, Lonza, #PT-4504E). High density aggregates were obtained by plating, on average, 3×10^5 cells per well in a conical bottom 96 well plate (Thermo Scientific), pelleting by centrifugation (5 minutes at 600 g), and incubation at 37° C. and 5% CO2. Pellets formed coherent spherical aggregates by day two of culture. After seven days, wide bore tips were used to transfer aggregates to V-bottom 96 well plates (Corning). Aggregates were maintained in differentiation media at 37° C. and 5% CO2 for 3-5 weeks and fed every two days until experimentation.
# For chondrocyte cytokine induction assays, 24 hours prior to experimentation, dexamethasone containing media was removed, aggregates were rinsed with DPBS (Gibco) and dexamethasone-free differentiation media was added. For experimentation, aggregates were transferred to 24 well plates (24 aggregates per condition), spent media was removed and fresh warmed dexamethasone-free media containing samples was added. Aggregates were then incubated at 37° C. and 5% CO2 for two days.
# Recombinant BbHtrA or BbHtrA^S226A was added to culture medium and incubated with chondrocyte aggregate cultures. BbHtrA and BbHtrA^S226A were purified using an E. coli system and was expected to contain endotoxin which would have a stimulatory effect on the chondrocytes. To control for endotoxin contamination (lipopolysaccharide, LPS), an endotoxin removal kit (Noragen) was used to remove the bulk of LPS from recombinant BbHtrAs. The relative toxicity of the amount remaining in the BbHtrA and BbHtrA^S226A samples was determined by a chromogenic Limulus Amoebocyte Lysate (LAL) method (Lonza, Walkersville, Md.). Prior to addition to aggregates, LPS (44 ng, 200 EU), BbHtrA^WT (20 μg, 27.9 EU LPS) and BbHtrA^S226A ([…], 1.99 EU LPS) were incubated in 1 mg/ml polymyxin B sulfate (Sigma) on ice for 30 min with occasional mixing. Warmed dexamethasone-free medium was then added to each test condition to a final volume of 1 ml. Control aggregates were maintained in untreated medium also containing polymyxin B sulfate. The final concentration for all test conditions was 60 μg/ml polymyxin B sulfate. […]
# [1] = spent medium of chondrocyte aggregates after 48 hours, cytokine array, background subtracted
molecule,measurement,setting,value
"BbHtrA: Recombinant wild type B. burgdorferi HtrA serine protease, mature protein amino acids 38-474, expressed in E. coli (SEQ ID NO:1, 9) (protein, listed as Borrelia burgdorferi) EEKDNTVRALQDSFREVSKKILPSSVEVHATGVIKQSFPIPFFFFDMPEFDSERKSNWAGSGVIIGRDSQKKSLFYVVTNSHVVDKATELEVVSYDKKKHKAKLIGKDEKKDIALISFESDDATIKVADLGDSDKLEIGDWVMAVGSPFQFSFTVTAGIVSGLQRSANPNLQSRNLFIQTDAAINRGNSGGPLVNIKGEVIGINAWIASNSGGNIGLGFAIPVNNIKSTVDFFLKGKKIESAWLGISFYPLKTRDSEVLKSLGVESNDVSAAIIASLYPGSPAVKSGLRAGDIIMKVNGVSMSVFQDVTSYISDFYAGEKVNVEILRGNVKKNIEIVLAVRPKDKELSSSKMLPGFVVYPLVEDIKAQLNLRNWIKGVVVDYIDKNLASNIKMKSGDVILSVNSKSVSNLREFYDALEVGKNTYKILRGNDSFKITF",Cytokines released by chondrocytes in response,"additional experiments, FIG. 10: BbHtrA^WT, BbHtrA^S226A","CCL5, CCL2, CXCL1, CCL1, sICAM-1, IL-6 and IL-8"
same,Cytokines released by chondrocytes in response,"initial experiments, FIG. 9A: BbHtrA, heat denatured BbHtrA","CXCL1, CCL1, sICAM-1, IL-6, IL-8 and CCL2"
same,"GROα/CXCL1 pixel density, Mean",[1],1.349
same,"I-309/CCL1 pixel density, Mean",[1],0.535
same,"IL-6 pixel density, Mean",[1],0.627
same,"IL-8 pixel density, Mean",[1],1.581
same,"MCP-1/CCL2 pixel density, Mean",[1],0.452
same,"RANTES/CCL5 pixel density, Mean",[1],0.736
same,"sICAM-1/CD54 pixel density, Mean",[1],0.890
